The record followed here is patent US20200239537.

Data set [1] relates to N-MeLeu9-apelin-17 A2 (11).

recombinant human plasma kallikrein KLKB1 (rhKLKB1, Novoprotein), sequence (chain, as listed by the source): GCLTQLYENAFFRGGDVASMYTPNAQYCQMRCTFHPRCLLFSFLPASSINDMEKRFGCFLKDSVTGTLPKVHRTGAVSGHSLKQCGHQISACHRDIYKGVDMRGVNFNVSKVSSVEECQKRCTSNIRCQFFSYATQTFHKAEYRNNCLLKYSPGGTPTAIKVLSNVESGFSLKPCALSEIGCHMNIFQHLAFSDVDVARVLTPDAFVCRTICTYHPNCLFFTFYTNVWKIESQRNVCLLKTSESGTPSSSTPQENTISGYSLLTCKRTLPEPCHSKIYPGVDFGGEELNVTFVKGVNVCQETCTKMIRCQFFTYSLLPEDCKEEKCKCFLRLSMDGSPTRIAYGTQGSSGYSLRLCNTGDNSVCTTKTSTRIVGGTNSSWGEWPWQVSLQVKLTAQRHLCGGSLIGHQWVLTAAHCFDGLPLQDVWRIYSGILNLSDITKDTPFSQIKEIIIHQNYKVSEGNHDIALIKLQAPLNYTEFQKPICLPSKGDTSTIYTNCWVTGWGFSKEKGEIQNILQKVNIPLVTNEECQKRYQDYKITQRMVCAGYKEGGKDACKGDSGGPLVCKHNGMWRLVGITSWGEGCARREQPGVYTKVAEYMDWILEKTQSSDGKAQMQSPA

In the case of “recombinant human plasma kallikrein KLKB1 (rhKLKB1, Novoprotein)”, in data set [1], the Km worked out at 245 µM, the kcat (1/S) was 16.5 1/S and the kcat/Km (1/MS) was 67000 1/MS. For the same substance, in the data set on apelin-17 (2), the Km was 97 µM, the kcat (1/S) was 13.7 1/S and the kcat/Km (1/MS) was 140000 1/MS. In addition, in the data set on apelin-17 A2 (5), the Km came out at 30 µM, the kcat (1/S) is 1.4 1/S and the kcat/Km (1/MS) was 47000 1/MS.

In general, Km refers to the concentration of substrate that gives half-maximal velocity.
